Measurements from IntAct's records for PubMed 9082982.

Biological target: sap18_drome Bin1 (UniProt Q9VEX9)
Sequence (Q9VEX9 whole entry): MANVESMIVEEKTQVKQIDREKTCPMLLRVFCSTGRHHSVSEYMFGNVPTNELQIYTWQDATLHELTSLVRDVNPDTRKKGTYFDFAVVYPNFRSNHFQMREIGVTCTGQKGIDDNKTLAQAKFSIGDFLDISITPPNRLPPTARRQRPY

Sequence of Cell division control protein 42 homolog (Homo sapiens), P60953 G12V (P60953 whole entry G12V): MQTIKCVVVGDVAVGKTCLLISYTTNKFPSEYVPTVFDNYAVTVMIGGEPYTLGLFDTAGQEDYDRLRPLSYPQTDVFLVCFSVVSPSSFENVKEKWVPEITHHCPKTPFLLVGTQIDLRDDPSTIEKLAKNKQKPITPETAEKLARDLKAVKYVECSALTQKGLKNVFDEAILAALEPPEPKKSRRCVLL
Sequence of Cell division control protein 42 homolog (Homo sapiens), P60953 D118A (P60953 whole entry D118A): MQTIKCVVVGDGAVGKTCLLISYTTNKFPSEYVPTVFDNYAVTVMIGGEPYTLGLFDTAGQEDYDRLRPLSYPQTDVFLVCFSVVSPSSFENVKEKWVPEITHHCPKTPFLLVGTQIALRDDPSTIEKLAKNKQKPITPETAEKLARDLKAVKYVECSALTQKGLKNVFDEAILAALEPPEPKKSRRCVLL

| effect of a mutation on the interaction | Substance |
| --- | --- |
| increasing interaction | Cell division control protein 42 homolog (Homo sapiens), P60953 G12V |
| disrupting interaction | Cell division control protein 42 homolog (Homo sapiens), P60953 D118A |
